Measured values reported in patent US20230053449A1, “DC-SIGN ANTIBODY DRUG CONJUGATES” (NOVARTIS AG, priority 2018, published 2023).

Legend:
L-SIGN = molecular target: T1, L-SIGN (Homo sapiens, UniProt Q9H2X3); assay: FACS binding to L-SIGN expressing K562 cells
T1 construct: expressed in transfected cells; host or cells: K562 (retroviral transduction)
T1 sequence (Q9H2X3 1-399): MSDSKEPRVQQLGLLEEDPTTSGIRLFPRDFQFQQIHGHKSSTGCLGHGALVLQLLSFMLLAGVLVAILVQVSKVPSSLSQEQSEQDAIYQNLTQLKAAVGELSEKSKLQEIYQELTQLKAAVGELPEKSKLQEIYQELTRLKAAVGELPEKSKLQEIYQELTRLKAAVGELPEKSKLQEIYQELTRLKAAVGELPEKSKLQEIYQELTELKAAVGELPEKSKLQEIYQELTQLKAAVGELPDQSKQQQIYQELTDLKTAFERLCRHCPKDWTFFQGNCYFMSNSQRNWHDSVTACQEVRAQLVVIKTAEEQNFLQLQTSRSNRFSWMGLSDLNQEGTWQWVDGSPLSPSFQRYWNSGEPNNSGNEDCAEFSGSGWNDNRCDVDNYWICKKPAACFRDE
Procedure: (§1) The affinity of various antibodies and ADCs to DC-SIGN and its species orthologues was determined using FACS. Purified IgGs were titrated to determine EC50 values for binding to cell surface expressed DC-SIGN.
For this purpose, human DC-SIGN expressing or cynomolgus monkey DC-SIGN expressing stable CHO cell lines or K562 expressing DC-SIGN or K562 expressing L-SIGN cell lines were checked for density and viability using VICELL (Beckman Coulter), and washed once with 4° C. PBS. Cells were stained with DAPI (0.5 ug/mL) diluted in PBS for 30 min on ice. Cells were diluted into 4° C. FACS buffer (PBS, 10 mM EDTA, 2% FBS). 125 μl of cells were seeded (10,000 cells/well) into 96-well v-bottom plates (Nunc cat #442587) and centrifuged for 4 min at 1500 rpm at 4° C. Supernatant was removed. […] After the final wash, cells were resuspended in Fixative Buffer (Biolegend, 420801) and 90 μl of FACS buffer followed by readout on the flow cytometry machine (BD LSRFortessa Cell Analyzer; Cat #647177). Geometric Mean fluorescence intensity (MFI) of live, single cells was calculated in Flowjo 10.4.2 and exported into Graphpad Prism7 for EC50 determination.
Selectivity was assessed by measuring apparent binding affinities to isogenic cell pairs engineered to overexpress DC-SIGN as well as cell lines expressing DC-SIGN paralog L-SIGN.

[1] = molecular target: T2, cynomolgus monkey DC-SIGN, full length, stably expressed on CHO cells (cynomolgus monkey, UniProt Q95J96 1-403 (rhesus entry)); assay: flow cytometry, CHO cells expressing cyno DC-SIGN
T2 construct: also called cyno DC-SIGN CHO
T2 sequence: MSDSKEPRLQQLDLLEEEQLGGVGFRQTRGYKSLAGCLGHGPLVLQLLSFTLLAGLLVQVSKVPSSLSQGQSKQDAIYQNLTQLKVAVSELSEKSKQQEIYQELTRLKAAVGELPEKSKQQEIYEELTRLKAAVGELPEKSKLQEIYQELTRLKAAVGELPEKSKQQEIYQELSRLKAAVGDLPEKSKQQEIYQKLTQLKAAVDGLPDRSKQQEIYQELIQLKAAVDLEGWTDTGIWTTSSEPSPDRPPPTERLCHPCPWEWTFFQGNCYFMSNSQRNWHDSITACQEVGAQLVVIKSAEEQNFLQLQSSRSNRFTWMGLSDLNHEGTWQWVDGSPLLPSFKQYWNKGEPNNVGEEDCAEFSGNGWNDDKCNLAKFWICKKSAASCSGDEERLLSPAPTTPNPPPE
Procedure: as §1
(§2) For this purpose, human DC-SIGN expressing or cynomolgus monkey DC-SIGN expressing stable CHO cell lines or K562 expressing DC-SIGN or K562 expressing L-SIGN cell lines were checked for density and viability using VICELL (Beckman Coulter), and washed once with 4° C. PBS. Cells were stained with DAPI (0.5 ug/mL) diluted in PBS for 30 min on ice. Cells were diluted into 4° C. FACS buffer (PBS, 10 mM EDTA, 2% FBS). 125 μl of cells were seeded (10,000 cells/well) into 96-well v-bottom plates (Nunc cat #442587) and centrifuged for 4 min at 1500 rpm at 4° C. Supernatant was removed. […] Following incubation, cells were spun down (1500 rpm, 4 min, 4° C.) and washed two times with FACS buffer. A fluorophore-conjugated anti-hFc gamma-AF-647 (Southern Biotechnology) detection antibody was added at 1:400 dilution and samples were incubated for 1 h on ice in the dark.

[2] = molecular target: T3, human DC-SIGN, full length, stably expressed on CHO or K562 cells (human, UniProt Q9NNX6 1-404); assay: flow cytometry, CHO cells expressing human DC-SIGN
T3 construct: Also the native/transgenic human DC-SIGN on moDCs, macrophages and Tg+ mouse dendritic cells in the functional entries; also called human DC-SIGN CHO; human DC-SIGN K562
T3 sequence: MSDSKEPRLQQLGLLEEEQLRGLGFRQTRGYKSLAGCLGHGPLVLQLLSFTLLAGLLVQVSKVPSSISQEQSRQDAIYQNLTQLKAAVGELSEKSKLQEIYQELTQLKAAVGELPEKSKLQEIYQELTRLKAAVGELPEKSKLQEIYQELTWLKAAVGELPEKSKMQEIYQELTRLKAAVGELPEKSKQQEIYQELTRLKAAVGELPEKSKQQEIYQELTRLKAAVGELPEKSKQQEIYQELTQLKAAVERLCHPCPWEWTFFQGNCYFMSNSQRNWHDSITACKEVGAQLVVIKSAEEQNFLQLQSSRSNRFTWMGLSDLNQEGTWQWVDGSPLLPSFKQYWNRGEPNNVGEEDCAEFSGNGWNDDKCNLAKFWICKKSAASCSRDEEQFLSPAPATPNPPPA
Procedure: as §1, §2

[3] = molecular target: T3, human DC-SIGN, full length, stably …; assay: flow cytometry, K562 cells expressing human DC-SIGN
Procedure: as §1, §2

[4] = Aggregation by analytical size-exclusion chromatography (AnSEC); assay type: physicochemical; settings: conjugate with linker-payload C-5
Procedure: Conjugates were profiled using analytical size-exclusion chromatography (AnSEC) on Zenix C-300 3 um 7.8×150 mm column (Sepax Technologies). Alternatively, samples were tested on a KW-803 column (TIC Cat #6960940) Aggregation was analyzed based on analytical size exclusion chromatography and reported as the % monomer based on AUC of the assigned monomer peak.
The sample shown below in Table 20 achieved >90% conjugation efficiency and >95% purity as assessed by AnSEC. This illustrates that conjugates of the invention can be made efficiently and have favorable characteristics.

B1: 2B2 Hz: Humanization of Antibodies 2B2 and 1G12: variable region constructs were designed for humanization and optimization of sequences (antibody)
heavy: QVQLVQSGAEVKKPGASVKVSCKASGYTFTNYGINWVRQAPGQRLEWMGYIYIGNDYTEYNERFKGRVTITSDTSASTAYMELSSLRSEDTAVYYCARLYYGSSLYSYAMDYWGQGTTVTVSSASTKGPSVFPLAPSSKSTSGGTAALGCLVKDYFPCPVTVSWNSGALTSGVHTFPAVLQSSGLYSLSSVVTVPSSSLGTQTYICNVNHKPSNTKVDKRVEPKSCDKTHTCPPCPAPELLGGPSVFLFPPKPKDTLMISRTPEVTCVVVAVSHEDPEVKFNWYVDGVEVHNAKTKPREEQYNSTYRVVSVLTVLHQDWLNGKEYKCKVSNKALAAPIEKTISKAKGQPREPQVYTLPPSREEMTKNQVSLTCLVKGFYPCDIAVEWESNGQPENNYKTTPPVLDSDGSFFLYSKLTVDKSRWQQGNVFSCSVMHEALHNHYTQKSLSLSPGK
light: DIVMTQSPLSLPVTPGEPASISCRSSKSLLHSSGNTYLYWFLQKPGQSPQLLISRMSNLASGVPDRFSGSGSGTDFTLKISRVEAEDVGVYYCMQHLEYPYTFGGGTKVEIKRTVAAPSVFIFPPSDEQLKSGTASVVCLLNNFYPREAKVQWKVDNALQSGNSQESVTEQDSKDSTYSLSSTLTLSKADYEKHKVYACEVTHQGLSSPVTKSFNRGEC
With B1 the “human L-SIGN K562 EC50” value (L-SIGN) was greater than 10 µg/mL.

B2: 1G12 Parental (antibody, V domains shown)
VH: QVQLQQSGPGLVQPSQSLSITCTVSGFSLTNYGVHWVRQSPGKGLEWLGVIWRGESTDYNAAFMSRLSVTKDDSKSQVFFKMNSLQADDTAIYYCARNGGSSGWYFDVWGTGTTVTVSS
VL: DIQMTQTHKFMSTSVGDRVSITCKASQDVTSAVAWYQQTPGQSPNLLIYWTSTRHTGVPDRFTGSGSGTDYTLTISSVQAEDLALYYCQQHYTTPLTFGAGTKLELK
For B2, the EC50 [1] was 0.07 µg/mL, the EC50 [2] was 0.06 µg/mL and the EC50 [3] was 0.02 µg/mL.

B3: 2B2 Chimeric (antibody)
heavy: EVQLQQSGAELVRPGSSVKMSCKTSGYTFTNYGINWVKQRPGQGLEWIGYIYIGNDYTEYNERFKGKATLTSDTSSSTAHIQLNSLTSEDSAIYFCARLYYGSSLYSYAMDYWGQGTSVTVSSASTKGPSVFPLAPSSKSTSGGTAALGCLVKDYFPCPVTVSWNSGALTSGVHTFPAVLQSSGLYSLSSVVTVPSSSLGTQTYICNVNHKPSNTKVDKRVEPKSCDKTHTCPPCPAPELLGGPSVFLFPPKPKDTLMISRTPEVTCVVVAVSHEDPEVKFNWYVDGVEVHNAKTKPREEQYNSTYRVVSVLTVLHQDWLNGKEYKCKVSNKALAAPIEKTISKAKGQPREPQVYTLPPSREEMTKNQVSLTCLVKGFYPCDIAVEWESNGQPENNYKTTPPVLDSDGSFFLYSKLTVDKSRWQQGNVFSCSVMHEALHNHYTQKSLSLSPGK
light: DIVMTQAAPSVSVTPGESVSISCRSSKSLLHSSGNTYLYWFLQRPGQSPQLLISRMSNLASGVPDRFSGSGSGTAFTLRISRVEAEDVGVYYCMQHLEYPYTFGGGTKLELKRTVAAPSVFIFPPSDEQLKSGTASVVCLLNNFYPREAKVQWKVDNALQSGNSQESVTEQDSKDSTYSLSSTLTLSKADYEKHKVYACEVTHQGLSSPVTKSFNRGEC
In the case of B3, the “% Monomer” value ([4]; after preparative SEC) is reported as 99% and the “% Monomer” value ([4]; before preparative SEC) is reported as 95.4%.
